Measurements from patent US20240226118A1 (US Dept. of Health and Human Services, published 2024).

Target: T1, ATP1A1 genetically fused to yellow fluorescent protein (YFP) tag (human, UniProt P05023 1-1023)
T1 construct: Stood in lysates of RSV-infected H1299 ATP1A1-YFP cells and was pulled down with YFP-specific antibodies; The other subunits of the Na+,K+-ATPase complex may have been present; also called ATP1A1-YFP; ATPase Na+/K+ transporting subunit alpha 1; not shown: yellow fluorescent protein (YFP) tag
Assay: co-immunoprecipitation

B1: RSV attachment (G) glycoprotein (other)
chain: MSKNKDQRTAKTLERTWDTLNHLLFISSCLYKLNLKSVAQITLSILAMIISTSLIIAAIIFIASANHKVTPTTAIIQDATSQIKNTTPTYLTQNPQLGISPSNPSEITSQITTILASTTPGVKSTLQSTTVKTKNTTTTQTQPSKPTTKQRQNKPPSKPNNDFHFEVFNFVPCSICSNNPTCWAICKRIPNKKPGKKTTTKPTKKPTLKTTKKDPKPQTTKSKEVPTTKPTEEPTINTTKTNIITTLLTSNTTGNPELTSQMETFHSTSSEGNPSPSQVSTTSEYPSQPSSPPNTPRQ
notes: Viral protein in lysates of RSV-infected cells; also called RSV G
binding result: no binding
